Experimental data reported in publication PMC3440434, “Efficient Antifouling Surface for Quantitative Surface Plasmon Resonance Based Biosensor Analysis”.

Legend:
[1] = biological target: T1, PFV-1 IN (integrase) (PFV-1, UniProt P14350 752-1143); assay: SPR imaging; 4 nM IN, monophasic; 5 uM dsDNA spots; ka 3.7e6 M-1s-1, kd 1.8e-3 s-1; text prints 4.9e-9 M but the rates give 4.9e-10; 10 mM MgCl2; 20 mM Hepes pH 8, 10 mM MgCl2, 100 mM NaCl, 25 ul/min; EG4-pretreated gold SPRi surface; temperature not given; details: protein: recombinant; label: none (immobilized on gold via 5' thiol); 5' overhang 5 nt (T5 spacer) on strand 1, other end blunt
[2] = biological target: T1, PFV-1 IN (integrase); assay: SPR imaging; KD1, fast phase of two-phase fit; 200 nM IN; ka1 2.2e5 M-1s-1, kd1 5.8e-3 s-1; 10 mM MgCl2; 20 mM Hepes pH 8, 10 mM MgCl2, 100 mM NaCl, 25 ul/min; EG4-pretreated gold SPRi surface; temperature not given; details: protein: recombinant; label: none (immobilized on gold via 5' thiol); 5' overhang 5 nt (T5 spacer) on strand 1, other end blunt

B1: SH-5T-dsDNA (random 38 bp) (dsDNA)
DNA 1: TTTTTCTAAGCTAGAAGATTACTCCAAGTACATAATCTAAAAT
DNA 2: ATTTTAGATTATGTACTTGGAGTAATCTTCTAGCTTAG
modifications: 5' thiol-C6 on strand 1
Kd [1]: 0.00049 µM
Kd [2]: 0.026 µM
